Results from patent US20230399394A1 (SUNSHINE GUOJIAN PHARMACEUTICAL SHANGHAI, published 2023).

What was measured:
Human IL-33-his = target: T1, Human IL-33-his (human, UniProt O95760 112-270, biotinylated with EZ-Link NHS-Biotin where used as IL-33-his-biotin); experiment: competition ELISA as Example 10, ST2-Fc on plate; competitor ST2-Fc
T1 construct: Used plain (SPR, cell assays) and biotinylated (ELISA); also called IL-33-his-biotin
T1 sequence: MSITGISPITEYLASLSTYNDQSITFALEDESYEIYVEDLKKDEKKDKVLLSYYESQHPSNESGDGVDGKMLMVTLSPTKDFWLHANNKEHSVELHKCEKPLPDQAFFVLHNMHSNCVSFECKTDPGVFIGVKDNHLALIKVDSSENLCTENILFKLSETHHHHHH
Procedure: ST2-Fc protein was diluted to 1 μg/mL with ELISA coating solution to coat ELISA plate with 100 μL/well. The plate was placed in a wet box at 4° C. for 16 h for coating. The ELISA plate was washed 3 times with PBST, and then was blocked with 2% BSA prepared in PBS at 200 μL/well at room temperature for 2 h. The plate was washed once with PBST, and was patted dry to remove the excess blocking solution. Each monoclonal antibody was diluted with 1% BSA prepared in PBST in a 3-fold gradient. The highest concentration of antibody was 10 μg/mL, and the antibody was diluted for 11 gradients. The diluted antibody was mixed 1:1 with 10 ng/ml IL-33-his-biotin, and then the mixture was added into the ELISA well at 100 μL/well. The plate was incubated at room temperature for 1 h. Each concentration was added to duplicate wells in parallel (maximum final concentration of antibody was […], final concentration of IL-33-his-biotin was 5 ng/mL). Unbound or non-specifically bound primary antibodies were washed out. According to the instructions of the antibody, HRP labeled streptavidin secondary antibody was diluted to an appropriate concentration with antibody diluent solution, then it was added to ELISA plate with 100 μL/well, and was incubated at room temperature for 1 h. The ELISA plate was washed with PBST for 5 times, and was patted dry on absorbent paper to remove excess liquid. TMB developing solution was added with 100 μL/well for development to an appropriate degree. 2M H₂SO₄ was added with 70 μL/well to terminate development, and the absorbance was measured at 450 nm on a multifunctional microplate reader. The data were analyzed.
The blocking effect of the above humanized antibodies on the binding of IL-33 to its receptor ST2 was determined by the ELISA method, and the relevant experimental methods were referred to Example 10.

[1] = target: T2, IL-33 mutant protein Q57A (human, UniProt O95760 112-270); experiment: ELISA as Example 9; row Q57A against WT-1
T2 construct: Prokaryotic expression
T2 chain: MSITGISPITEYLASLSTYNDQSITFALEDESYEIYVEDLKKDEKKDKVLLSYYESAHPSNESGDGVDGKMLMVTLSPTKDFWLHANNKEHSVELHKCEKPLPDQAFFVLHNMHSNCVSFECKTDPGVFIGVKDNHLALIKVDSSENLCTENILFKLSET
Procedure: (§1) SA protein was diluted to 2 μg/mL to coat ELISA plate at 100 μL/well overnight at 4° C. The plate was washed with PBST (PBS containing 0.05% Tween20) for 3 times, and blocked with 2% BSA prepared in PBS at 200 μL/well, at room temperature for 2 h. After the plate was washed twice with PBST, IL-33-his-biotin protein was diluted to 1 μg/mL with 1% BSA prepared in PBST, and was added to ELISA plate at 100 μL/well. The plate was incubated at room temperature for 1 h, and each monoclonal antibody was diluted with 1% BSA prepared in PBST in a 3-fold gradient. The highest concentration of antibody was 10 μg/mL, and the antibody was diluted for 12 gradients. Each diluted monoclonal antibody was added to ELISA wells with 100 μL/well, and the plate was incubated at room temperature for 1 h. Each sample was added to duplicate wells in parallel. The plate was washed with PBST for 3 times, and HRP-anti human IgG Fc secondary antibody prepared with PBST was diluted at an appropriate ratio, and was added to ELISA wells at 100 μL/well. […] Each reaction solution was shaken uniformly and OD450 nm was read on a microplate reader. The data was analyzed and EC₅₀ was calculated.
(§2) Subsequently, according to the experimental method of Example 9, the affinity of the above mutant proteins to 874F7-Hu1 was determined, and IL-33 proteins (WT-1, WT-2, WT-3, and WT-4) without any mutation were set as controls.

[2] = target: T3, IL-33 mutant protein E44A (human, UniProt O95760 112-270); experiment: ELISA as Example 9; row E44A against WT-1
T3 construct: Prokaryotic expression
T3 chain: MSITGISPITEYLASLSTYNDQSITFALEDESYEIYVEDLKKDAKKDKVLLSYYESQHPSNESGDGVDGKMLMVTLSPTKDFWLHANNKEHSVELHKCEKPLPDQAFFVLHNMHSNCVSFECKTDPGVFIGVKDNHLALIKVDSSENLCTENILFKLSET
Procedure: as §1, §2

[3] = target: T4, IL-33 mutant protein P59A (human, UniProt O95760 112-270); experiment: ELISA as Example 9; row P59A against WT-1
T4 construct: Prokaryotic expression
T4 chain: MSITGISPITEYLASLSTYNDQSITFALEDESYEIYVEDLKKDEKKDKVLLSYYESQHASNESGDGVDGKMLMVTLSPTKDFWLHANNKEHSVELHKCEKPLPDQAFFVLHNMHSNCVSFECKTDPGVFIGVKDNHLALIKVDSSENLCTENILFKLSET
Procedure: as §1, §2

[4] = target: T5, IL-33 mutant protein D65A (human, UniProt O95760 112-270); experiment: ELISA as Example 9; row D65A against WT-3
T5 construct: Prokaryotic expression
T5 chain: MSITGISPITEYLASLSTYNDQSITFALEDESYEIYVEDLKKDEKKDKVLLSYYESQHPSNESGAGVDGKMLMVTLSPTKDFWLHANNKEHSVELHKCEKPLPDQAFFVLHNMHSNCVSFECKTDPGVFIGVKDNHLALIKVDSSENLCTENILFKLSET
Procedure: as §1, §2

[5] = target: T6, IL-33 mutant protein S52A (human, UniProt O95760 112-270); experiment: ELISA as Example 9; row S52A
T6 construct: Prokaryotic expression
T6 chain: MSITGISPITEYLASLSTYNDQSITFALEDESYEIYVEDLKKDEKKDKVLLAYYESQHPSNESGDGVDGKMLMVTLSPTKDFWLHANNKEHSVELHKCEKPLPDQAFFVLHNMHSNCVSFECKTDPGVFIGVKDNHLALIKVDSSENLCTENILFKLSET
Procedure: as §1, §2

- IC50 (Human IL-33-his): 0.451 nM
- Affinity decline ratio [1]: 0.5 fold
- Affinity decline ratio [2]: 0.6 fold
- Affinity decline ratio [3]: 0.5 fold
- Affinity decline ratio [4]: 192 fold
- EC50 [5]: 1.96 nM
B1: 874F7-Hu1 (antibody, human IgG4 S228P, kappa)
heavy: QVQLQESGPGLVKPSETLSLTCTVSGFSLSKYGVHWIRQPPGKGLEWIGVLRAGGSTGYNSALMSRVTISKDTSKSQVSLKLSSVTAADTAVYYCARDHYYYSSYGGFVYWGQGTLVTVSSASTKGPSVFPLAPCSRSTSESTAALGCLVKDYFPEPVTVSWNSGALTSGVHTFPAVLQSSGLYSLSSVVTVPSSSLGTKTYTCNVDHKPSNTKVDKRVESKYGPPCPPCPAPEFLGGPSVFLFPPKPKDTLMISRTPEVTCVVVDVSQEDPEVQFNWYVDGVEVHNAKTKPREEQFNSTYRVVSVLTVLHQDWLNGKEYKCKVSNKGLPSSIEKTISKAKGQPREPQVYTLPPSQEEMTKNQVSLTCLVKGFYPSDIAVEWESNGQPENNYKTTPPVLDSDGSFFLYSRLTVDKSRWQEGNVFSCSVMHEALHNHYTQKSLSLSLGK
light: DIQMTQSPSSVSASVGDRVTITCLASQTIGAWLAWYQQKPGKSPKLLIYAATRLADGVPSRFSGSGSGTDFTLTISSLQPEDFATYYCQQLDSSPYTFGQGTKVEIKRTVAAPSVFIFPPSDEQLKSGTASVVCLLNNFYPREAKVQWKVDNALQSGNSQESVTEQDSKDSTYSLSSTLTLSKADYEKHKVYACEVTHQGLSSPVTKSFNRGEC
notes: also called 874F7-Hul; humanized antibody 874F7-Hu1
